Publication PMC4577959 (Journal of the American Chemical Society, 2015)

Key:
[1] = target: fluorescein-labeled N2B peptide (NHR2-binding motif of E-proteins); assay: fluorescence polarisation
[2] = target: N2B peptide (NHR2-binding motif of E-proteins) (Homo sapiens, UniProt Q99081); details: ratio of Kd values, FP assay with flu-N2B

Row | Compound | Kd [1] | enhanced affinity versus the native NHR2 coiled coil [2]
1 | GST-NHR2(482–551), native Nervy homology two (NHR2) coiled coil domain of AML1-ETO (domain or fragment) | 356 µM | 
2 | CC[C@H](C)[C@@H]1NC(=O)[C@H](CO)NC(=O)[C@H](CCCNC(=N)N)NC(=O)[C@H](Cc2c[nH]c3ccccc23)NC(=O)[C@@H](NC(=O)[C@H](CCC(=O)O)NC(C)=O)CSSC[C@@H](C(=O)N[C@@H](CCCNC(=N)N)C(N)=O)NC(=O)[C@H](CC(C)C)NC(=O)[C@H](CCC(=O)O)NC(=O)[C@@H](NC(=O)[C@H](CC(C)C)NC(=O)[C@H](Cc2c[nH]cn2)NC(=O)[C@H](Cc2c[nH]c3ccccc23)NC(=O)[C@H](CC(C)C)NC(=O)[C@H](CCC(=O)O)NC(C)=O)CCCCn2cc(nn2)COCc2cn(nn2)CCCC[C@@H](C(N)=O)NC(=O)[C@H](CC(C)C)NC(=O)[C@H](C(C)C)NC(=O)[C@H](CCCNC(=N)N)NC1=O [CHD^DS-NHR2-3] |  | 5 fold
